According to the nanobody polyreactivity screen of Harvey et al. (2022):

Assay: yeast display, Sf9 membrane polyspecificity reagent, FACS + sequencing; frameworks hold sequencing errors
Method in brief: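 Galactose-induced (36–48 hours) yeast carrying a synthetic nanobody display library were exposed to 10% biotinylated, detergent-solubilized Sf9 membrane reagent at 4 °C for 1 hour. FACS followed streptavidin microbead enrichment, using low and high (top ~1%) gates for expression (anti-HA) and reagent binding (streptavidin). Colony PCR, MiSeq 2 × 250 sequencing and CDR-length filtering followed. Labels for polyreactivity reflect the gate of origin.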

QVQLVESGGGLVQAGGSLRLSCAASGSIFTFYAMGWYRQAPGKERELVATINRIGGNTYYADSVKGRFTISRDNAKNTVYLQMNSLKPEDTAVYYCAKLYGSANGYDYWGQGTQVSVSS
polyreactivity (PSR sort gate): low polyreactivity

QVQLVESGGGLVQAGGSLRLSCAASGRTFKWYAMGWYRQAPGKERELVAGISRGAGRTYYADSVKGRFTISRDNAKNTVYLQMNSLKPEDTAVYYCAAVPSYHSTSPFYYWGQGTQVTVSS
polyreactivity (PSR sort gate): high polyreactivity

QVQLVESGGGLVQAGGSLRLSCAASGRIFAFYAMGWYRQAPGKVREFVAAITKSGGSTYYADSVKGRFTISRDNAKNTVYLQMNSLKPEDTAVYYCAADYWYPTTYYLYDYWGQGTQVTVSS
polyreactivity (PSR sort gate): low polyreactivity

QVQHVESGGGLVQAGGSLRLSCAASGRIFRYNAMGWYRQAPGKERELVAAITNGGSTNYADSVKGRFTISRDNAKNTVYLQMNSLKPEDTAVYYCNAQGRRYSQRYYYWGQGTQVTVSS
polyreactivity (PSR sort gate): high polyreactivity

QVQLVESGGGLVHAGGSLRLSCAASGRIFKNYVMGWYRQAPGKERELVAGISSSGGSTYYADSVKGRFTISRYNAKNTVYLQMNSLKPEDTAVYYCAADYTFAYYNFKMDYWGQVTQVTVSS
polyreactivity (PSR sort gate): low polyreactivity

QVQLVESGGGLVQAGGSLRLSCAASGFIFATYNMGWYRQAPGKERELVAAITWRGGSTYYADSVKGRFTISRDNAKITVYLQMNSLKPEDTAVYYCAAQDVYSYRYVEDDYWGQGTQVTVSS
polyreactivity (PSR sort gate): low polyreactivity

QVQLVESGGGLVQAGGSLRLSCAASGSTFLVYAMGWYRQAPGKERELVAAIRGGGSTNYADSVKGRFTISRDNAKNTVYLQMNSLKPEDTAVYYCNADIVLSWFGSGFDYWGQGTQVTVSS
polyreactivity (PSR sort gate): low polyreactivity

QVQLVESGGGLVQAGGSLRLSCAASRRIFLWYAMGWYRQAPGKERELVASITRSGVTTYYADSVKGRFTISRDKAKNTVYLQMNSLKPEDTAVYYCNKDFRGDAIKLDVNYWGQGTQVTVSS
polyreactivity (PSR sort gate): low polyreactivity

QVQLVESGGGLVQAGGSLRLSCADSGRIFLTNAMGWYRQAPGKERELGATITSGGSTNYADSVKGRFTISRDNAKNTVYLQMNSLKPVDTAVYDCAADWEFGFDYWGQGTQVTVSS
polyreactivity (PSR sort gate): low polyreactivity

QVQLVESGGCLVQAGGSLRLSCAASGLIFAEYAMGWYRQAPGKERELVARITSGGSTDYADSVKGRFTISRDNAKNTVFLQMNSLKPEDTAVYYCAAAYAYWGQGTQVTVSS
polyreactivity (PSR sort gate): low polyreactivity

QVQLVESGGGLVQAGGSLRLSCAASGRTFGWYAMGSYRQAPGKERELVAAITSGTSTYYADSVKGRFTISRDNAKYTVYLQMNSRKPEDTAVYYCAVDRGISVGYTRFDYWGQGTQVTVSS
polyreactivity (PSR sort gate): low polyreactivity

QVQIVESGGVLDQAGGSLRLSCAATGSTFAKNAMGWYRQAPGKERELVAAITSGGSTYYADSVKGRFTISRDNAKNTVYLQMYSLKPEDTAVYYCAVDYPWDIFIYWVQNYDHWGHGTQVTVSS
polyreactivity (PSR sort gate): high polyreactivity

QVQLVESGGGLVQAGGSLRLSCAASGSIFLNYAMGWYRQAPGNERELVAGISNGGSTNYADSVKGRFTISRDNAKNTVYLQMNSLKPEDTAVYYCARPAYKSRGKRFDYLGQGTQVTVSS
polyreactivity (PSR sort gate): low polyreactivity

QVQLVESGGGLVQAGGSLRLSCAASGITFSYYAMGWYRPAPGKERELVAAISRTGTSTYYADSVKGRFTISRDNAKNTVYFQMNSLKPEDTAVYYCAAVPRHPYHDKYDYWGQGTQVTVSS
polyreactivity (PSR sort gate): high polyreactivity

QVQLVESGGGLVQAGGSLRLSCAASGLTLDYYARGWYRQAPGKDRELVAVIRGRSGSTYYADSVKGRFTISRDNAKNTVYLQMNSLKPEDTAVYYCARVTTYGDYYWGQGTQVTVSS
polyreactivity (PSR sort gate): high polyreactivity

QVQLVESGGGLVQAGGSLRLSCAASGRIFNYNAMGWYRQAPGKEREFVATISGRAGRTYYADSVKGRFTISRDNAKNTVYLQMNSLKPEDTAVYYCNAGQWRYPGLYYYWGQGTQVTVSS
polyreactivity (PSR sort gate): high polyreactivity

HVQLVESGGGLVQAGGSLRLSCAASGLTYPRYTMGWYRQAPGKESELVAAISSSTGTTNYADSVKGRFTISRDNAKINVYLQMYSLKPEDTAVYYCAAGGSLYAYGYRSRYGYWGQGTQVTVSS
polyreactivity (PSR sort gate): low polyreactivity

QVQLVESGGCLFQAGGSLRLSCAASGFIFGHNAMGWYRQAPGTERELVAAITWSGGRTYYADSVKGRFTISRDNAKNTVYLQMISLKPEDKAVDYCNRRGRWRKYDYWGQGTQVTVSS
polyreactivity (PSR sort gate): high polyreactivity

QVQLVESVGGLVPAGGSLRLSCAASGFTYPAYTMGWYRQAPGKERELVAAITSSGGNTYYADSVKGRFTISRDNAKNTVYLQMNSLKPEDTAVYYCYADASSSPYTDRQYIGADDSWGQGTQVTVSS
polyreactivity (PSR sort gate): low polyreactivity

QVQLVESGGCLVKAGGSLRLSCAASGRIFLTNAIGWYRQAPGKESELVADISRAGSTYADSVKGRFTISRDNAKNTVYLQMNSLKPEDTAVYYCSADEYSPGDSRTRYDYWGQGTQVTVSS
polyreactivity (PSR sort gate): low polyreactivity

QVQLVESGGGLVQAGGSLRLSCAASGRTFAQYGMVWYRQAPGKEMELVAAISRRTGSTNYADSVKGRFTISRDNAKNTVYLQMNSLKPEDTAVYYCAARSYSYGVGYGYWGQGTQVTVSS
polyreactivity (PSR sort gate): high polyreactivity

QVQLVESGGGLVQAGGSLRLSCAASGSTFHRNTMGWYRQAPGKERELVAGISLRGVRTYYADSVKGRFTISRDNAKNTVYLQMNSLKPEDTAVYYCAAGGPYTRNFKLGYWGQGTQVTVSS
polyreactivity (PSR sort gate): high polyreactivity
